In the supplement of paper PMC9233669:
This sample holds only a part of the variants without activity.

How the values were obtained:
biotinyl-Phe-oxazolone = experiment: self-aminoacylation, catalytic enhancement (BFO) (fold over background); higher = more active; k-Seq, kA / k0A0; sequences stand for … in GGGAAUGGAUCCACAUCUACGAAUUC…UUCACUGCAGACUUGACGAAGCUG
Summary of the method: (§1)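 Catalytic enhancement equals the median kA over the uncatalyzed rate, the latter read from the low-activity peak of a bimodal Gaussian fit. Values of kA came from fitting each sequence's fraction reacted to a pseudo-first-order model, with 1000 bootstraps. Reacted RNA was captured with streptavidin and quantified by triplicate qPCR and Illumina sequencing after 90 minutes at room temperature with 2–1250 μM biotinyl-aminoacyl-oxazolone and 0.43 μM mutagenized RNA pools bearing a 21-nt variable region.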

biotinyl-Met-oxazolone = experiment: self-aminoacylation, catalytic enhancement (BMO) (fold over background); higher = more active; k-Seq, kA / k0A0; sequences stand for … in GGGAAUGGAUCCACAUCUACGAAUUC…UUCACUGCAGACUUGACGAAGCUG
Summary of the method: as §1

biotinyl-Trp-oxazolone = experiment: self-aminoacylation, catalytic enhancement (BWO) (fold over background); higher = more active; k-Seq, kA / k0A0; sequences stand for … in GGGAAUGGAUCCACAUCUACGAAUUC…UUCACUGCAGACUUGACGAAGCUG
Summary of the method: as §1

biotinyl-Val-oxazolone = experiment: self-aminoacylation, catalytic enhancement (BVO) (fold over background); higher = more active; k-Seq, kA / k0A0; sequences stand for … in GGGAAUGGAUCCACAUCUACGAAUUC…UUCACUGCAGACUUGACGAAGCUG
Summary of the method: as §1

biotinyl-Ile-oxazolone = experiment: self-aminoacylation, catalytic enhancement (BIO) (fold over background); higher = more active; k-Seq, kA / k0A0; sequences stand for … in GGGAAUGGAUCCACAUCUACGAAUUC…UUCACUGCAGACUUGACGAAGCUG
Summary of the method: as §1

biotinyl-Leu-oxazolone = experiment: self-aminoacylation, catalytic enhancement (BLO) (fold over background); higher = more active; k-Seq, kA / k0A0; sequences stand for … in GGGAAUGGAUCCACAUCUACGAAUUC…UUCACUGCAGACUUGACGAAGCUG
Summary of the method: as §1

Sequence	self-aminoacylation (biotinyl-Phe-oxazolone)	self-aminoacylation (biotinyl-Met-oxazolone)	self-aminoacylation (biotinyl-Trp-oxazolone)	self-aminoacylation (biotinyl-Val-oxazolone)	self-aminoacylation (biotinyl-Ile-oxazolone)	self-aminoacylation (biotinyl-Leu-oxazolone)
AAUCCCCUAGGUCAUCGGGUG [Fam2.2 aminoacylation ribozyme variant]	104	13.5	11.8	8.17	7.49	16.3
AUUCACCUAGGUCAUCGUAUG [Fam2.2 aminoacylation ribozyme variant]	0.528	0.503	0.207	0.737	0.593	0.553
CGAAACUUCAAGCAAUCGGUC [Fam1B.1 aminoacylation ribozyme variant]	7.94	0.901	5.43	1.18	1.17	0.993
CUUCACCUAGGUCAUCAGGUG [Fam2.2 aminoacylation ribozyme variant]	1.47	1.62	1.31	1.7	1.46	1.84
CUACUUCAAACAAUCGAUCUG [Fam1A.1 aminoacylation ribozyme variant]	3.4	0.574	1.34	0.693	0.663	0.572
CUACUUAAAACAAGCGGUCUG [Fam1A.1 aminoacylation ribozyme variant]	0.744	0.926	0.982	0.902	1.04	0.836
CCUCACUUCAAGCAGUCGGUC [Fam1B.1 aminoacylation ribozyme variant]	1.1	0.646	0.928	0.855	0.786	0.892
AACUUUGCUAAUCGUCGCAAG [Fam3.1 aminoacylation ribozyme variant]	9.09	2.21	2.15	1.89	1.93	2.66
AAGGUUGCUAAUAGUCGAAAG [Fam3.1 aminoacylation ribozyme variant]	6.22	1.36	2.33	1.44	1.51	0.938
UCACACUUCAAUCAAUCGGUC [Fam1B.1 aminoacylation ribozyme variant]	35.5	1.12	21.3	1.08	1.11	1.49
CGUCACCUAGGUCAUCGGGUG [Fam2.2 aminoacylation ribozyme variant]	28.9	3.71	6	5.16	3.51	4.11
AUUCACAUAUGUCAUCGGGUG [Fam2.2 aminoacylation ribozyme variant]	52.5	7.09	7.3	4.21	4.44	9.08
CUACUUCAAACAAUCGGUGUC [Fam1A.1 aminoacylation ribozyme variant]	1.18	0.654	0.851	0.546	0.613	0.635
AUACACCUAGGUCAUGGGGUG [Fam2.2 aminoacylation ribozyme variant]	18.6	3.51	3.4	2.26	2.52	3.49
AUUCUCCCAGGUCAUCGGGUG [Fam2.2 aminoacylation ribozyme variant]	90	10.2	9.06	6.91	6.87	12.8
AUUCACCUAGGCUAUCGGGUG [Fam2.2 aminoacylation ribozyme variant]	21.8	3.76	3.79	3.06	2.43	4.84
AUUACCCUCGUCAUCGAGUGA [Fam2.1 aminoacylation ribozyme variant]	8.82	2.98	3.22	2.07	2.08	3.09
CUACUUCGGACAAUCGGUCUG [Fam1A.1 aminoacylation ribozyme variant]	0.631	0.928	0.75	0.923	0.815	0.867
UUUACCCUGGUCAUCGAGCGA [Fam2.1 aminoacylation ribozyme variant]	2.17	3.05	3.52	2.43	2.16	3.21
CUACUUUAAACAAUCGGUUUG [Fam1A.1 aminoacylation ribozyme variant]	0.922	0.786	0.724	0.8	0.824	0.776
CCACACUUCUAGCAAUCGGUU [Fam1B.1 aminoacylation ribozyme variant]	1.17	0.978	1.12	1.36	1.34	1.13
AUUACCCUGGUCAACGAGAGA [Fam2.1 aminoacylation ribozyme variant]	0.544	0.82	0.896	0.904	0.807	0.664
AUUCUCUUAGGUCAUCGGGUG [Fam2.2 aminoacylation ribozyme variant]	77.6	9.08	9.36	5.53	5.7	12.5
AUUCACCUAGGUCAUCGGCCG [Fam2.2 aminoacylation ribozyme variant]	16.6	4.04	5.29	3.45	3.35	4.25
AAGUUUGCUAACAGUCUCAAG [Fam3.1 aminoacylation ribozyme variant]	4.44	0.713	1.64	0.694	0.979	0.733
AUACUUCAAACCAUCGGUCUG [Fam1A.1 aminoacylation ribozyme variant]	0.887	0.774	1.07	0.917	1.1	0.902

Sequence	self-aminoacylation (biotinyl-Phe-oxazolone)	self-aminoacylation (biotinyl-Met-oxazolone)	self-aminoacylation (biotinyl-Trp-oxazolone)	self-aminoacylation (biotinyl-Val-oxazolone)	self-aminoacylation (biotinyl-Ile-oxazolone)	self-aminoacylation (biotinyl-Leu-oxazolone)
CUGCUUCAAACAAUCGGCCUG [Fam1A.1 aminoacylation ribozyme variant]	449	3.69	162	3.35	3.07	6.94
CUACUUCAAACAAGGGGUCUG [Fam1A.1 aminoacylation ribozyme variant]	0.71	0.746	0.593	0.801	0.773	0.748
AAGUUUGUUAAUAUUCGCAAG [Fam3.1 aminoacylation ribozyme variant]	1.17	1.15	1.41	1.43	1.55	1.45
AAGUUUGCUAAUAGACACAAG [Fam3.1 aminoacylation ribozyme variant]	1.23	0.665	0.797	0.916	0.828	0.654
CCACACUUCCAGCAAUGGGUC [Fam1B.1 aminoacylation ribozyme variant]	1.22	0.956	0.884	1.38	1.34	0.88
AUUCACCUAGGUCAUCCGGCG [Fam2.2 aminoacylation ribozyme variant]	15.3	3.55	4.29	4.01	3.31	3.69
CUCCUUCAAACAAUCGCUCUG [Fam1A.1 aminoacylation ribozyme variant]	2.77	0.531	2.01	0.666	0.73	0.78
AUUACCCUGGUCCUCUAGUGA [Fam2.1 aminoacylation ribozyme variant]	79.1	9.46	12.3	5.33	4.37	10.6
CUACUUCAAACAAUCGGACAG [Fam1A.1 aminoacylation ribozyme variant]	1.19	0.718	0.656	0.709	0.782	0.672
AUGCACCUAGGUCAUCGCGUG [Fam2.2 aminoacylation ribozyme variant]	56	8.45	11	5.84	5.09	12
ACUCACCUAGGUCAACGGGUG [Fam2.2 aminoacylation ribozyme variant]	8.54	2.67	3.14	2.22	1.94	2.29
AUUACACUGGUCGUCGAGUGA [Fam2.1 aminoacylation ribozyme variant]	2.53	1.14	0.958	1.38	1.25	1.44
GAGUUUGCUAUUAGUCGCAAG [Fam3.1 aminoacylation ribozyme variant]	2.47	1.17	1.72	1.01	1.18	1.28
CUUCUCCUAGGUCAUCGGGUG [Fam2.2 aminoacylation ribozyme variant]	35.6	6.43	6.52	4.48	4.42	8.84
AUUAUCCUGGUCAGCGAGUGA [Fam2.1 aminoacylation ribozyme variant]	17.7	5.26	6.53	3.13	3.04	5.28
AUUCACCUAAGCCAUCGGGUG [Fam2.2 aminoacylation ribozyme variant]	26.6	3	3.01	3.24	2.55	4.62
UUUCACCUAGGUUAUCGGGUG [Fam2.2 aminoacylation ribozyme variant]	19.6	3.71	4.62	2.93	2.92	3.72
AUUAACCUGGUCAGCGAGUGA [Fam2.1 aminoacylation ribozyme variant]	19.5	4.41	4.66	2.81	2.57	4.19
AAGUUUGCUAAUAGAGGCAAG [Fam3.1 aminoacylation ribozyme variant]	0.955	0.692	0.788	0.733	0.762	0.554
CUAGUUCAAAAAAUCGGUCUG [Fam1A.1 aminoacylation ribozyme variant]	2.72	0.842	2.08	0.752	0.934	0.838
AUGCACCUAGGUCAGCGGGUG [Fam2.2 aminoacylation ribozyme variant]	18.1	3.65	5.27	3.02	3.27	4.65
AUUCACCUAGGUUGUCGGGUG [Fam2.2 aminoacylation ribozyme variant]	27.3	4.89	4.65	3.2	3.53	5.86
AUUACCGUGGUCAUCGAGAGA [Fam2.1 aminoacylation ribozyme variant]	0.92	0.605	0.794	1.18	1.11	0.723
CUUACCCUGGUCACCGAGUGA [Fam2.1 aminoacylation ribozyme variant]	57.1	9.14	8.62	4.49	3.87	8.9
AUUACCCUGGUCAACAAGUGA [Fam2.1 aminoacylation ribozyme variant]	23.2	7.83	8.34	3.85	3.48	6.6
